Source: publication PMC4474532

B1: human PERK luminal domain (residues 105–403) [human] / itself (parent)
chain: LVIISTLDGRIAALDPENHGKKQWDLDVGSGSLVSSSLSKPEVFGNKMIIPSLDGALFQWDQDRESMETVPFTVESLLESSYKFGDDVVLVGGKSLTTYGLSAYSGKVRYICSALGCRQWDSDEMEQEEDILLLQRTQKTVRAVGPRSGNEKWNFSVGHFELRYIPDMETRAGFIESTFKPNENTEESKIISDVEEQEAAIMDIVIKVSVADWKVMAFSKKGGHLEWEYQFCTPIASAWLLKDGKVIPISLFDDTSYTSNDDVLEDEEDIVEAARGATENSVYLGMYRGQLYLQSSVRI

Variants of: B1
Experiment: sedimentation velocity AUC
Conditions: with itself

Variant	screen value (parent: 0) [%]	screen value (parent: 0.73)
LVIISTLDGRIAALDPENHGKKQWDLDVGSGSLVSSSLSKPEVFGNKMIIPSLDGALFQWDQDRESMETVPFTVESLLESSYKFGDDVVLVGGKSLTTYGLSAYSGKVRYICSALGCRQWDSDEMEQEEDILLLQRTQKTVRAVGPRSGNEKWNFSVGHFELRYIPDMETRAGFIESTFKPNENTEESKIISDVEEQEAAIMDIVIKVSVADWKVMAFSKKGGHLEWEYQFCTPIASAWLLKDGKVIPISLFDDTSYTSNDDVLEDEEDIVEAARGATENSVYLGMYRGQLYNQSSVRI [chain 1 L293N]	-61	0.28
LVIISTLDGRIAALDPENHGKKQWDLDVGSGSLVSSSLSKPEVFGNKMIIPSLDGALFQWDQDRESMETVPFTVESLLESSYKFGDDVVLVGGKSLTTYGLSAYSGKVRYICSALGCRQWDSDEMEQEEDILLLQRTQKTVRAVGPRSGNEKWNFSVGHFELRYIPDMETRAGFIESTFKPNENTEESKIISDVEEQEAAIMDIVIKVSVADWKVMAFSKKGGHLEWEYQFCTPIASAWLLKDGKVIPISLFDDTSYTSNDDVLEDEEDIVEAARGATENSVYNGMYRGQLYLQSSVRI [chain 1 L284N]	-58	0.31
LVIISTLDGRIAALDPENHGKKQWDLDVGSGSLVSSSLSKPEVFGNKMIIPSLDGALFQWDQDRESMETVPFTVESLLESSYKFGDDVVLVGGKSLTTYGLSAYSGKVRYICSALGCRQWDSDEMEQEEDILLLQRTQKTVRAVGPRSGNEKWNFSVGHFELRYIPDMETRAGFIESTFKPNENTEESKIISDVEEQEAAIMDIVIKVSVADWKVMAFSKKGGHLEWEYQFCTPIASAWLLKDGKVIPISLFDDTSYTSNDDVLEDEEDIVEAARGATENSVYLGMYRGQNYLQSSVRI [chain 1 L291N]	-57	0.32
LVIISTLDGRIAALDPENHGKKQWDLDVGSGSLVSSSLSKPEVFGNKMIIPSLDGALFQWDQDRESMETVPFTVESLLESSYKFGDDVVLVGGKSLTTYGLSAYSGKVRYICSALGCRQWDSDEMEQEEDILLLQRTQKTVRAVGPRSGNEKWNFSVGHFELRYIPDMETRAGFIESTFKPNENTEESKIISDVEEQEAAIMDIVIKVSVADWKVMAFSKKGGHLEWEYQFCTPIASAWLLKDGKVIPISLFDDTSYTSNDDVLEDEEDIVEANRGATENSVYLGMYRGQLYLQSSVRI [chain 1 A274N]	-52	0.35
